T1: MmLARK (Mus musculus, UniProt Q8C7Q4 1-361)
T1 sequence: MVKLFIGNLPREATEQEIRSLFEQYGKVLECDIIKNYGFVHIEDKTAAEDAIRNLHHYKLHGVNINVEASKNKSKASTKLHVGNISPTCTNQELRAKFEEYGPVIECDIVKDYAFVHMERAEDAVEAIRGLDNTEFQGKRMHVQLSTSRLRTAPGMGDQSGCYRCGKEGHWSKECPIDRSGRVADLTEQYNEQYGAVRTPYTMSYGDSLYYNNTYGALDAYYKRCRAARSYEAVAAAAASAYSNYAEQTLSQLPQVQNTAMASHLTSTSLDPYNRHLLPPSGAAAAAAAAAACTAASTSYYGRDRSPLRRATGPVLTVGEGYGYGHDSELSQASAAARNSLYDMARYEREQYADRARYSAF

B1: BmPOUM2 G4 (structured_DNA)
DNA: CCAGTGCGGGGCGCGAGGGGGCCGAGGGGCGGGGCAACAA
B2: c-MYC G4 (structured_DNA)
DNA: TTATGGGGAGGGTGGGGAGGGTGGGGAAGG
B3: c-kit G4 (structured_DNA)
DNA: TTTTTCGGGCGGGCGCGAGGGAGGGG
B4: 142 ssDNA (mutant G4) (ssDNA)
DNA: GTGTCGCAGTGCCACAGTGTGCTGAGCAGTGTCCGCG
B5: 159 ssDNA (mutant G4) (ssDNA)
DNA: GGCAGTGTCAGTGAGACAGAGCAGTGTGTGCGG
B6: BmPOUM2 ssDNA (mutant G4) (ssDNA)
DNA: CCAGTGCGATGCGCGAGTGAGCCGAGTAGCAGTGCAACAA
B7: 558 ssDNA (mutant G4) (ssDNA)
DNA: GGTACTGTGATGCAAGTGCGGCAGTGAGCGCAGTGTGG
B8: 558 G4 (structured_DNA)
DNA: GGTACGGGGGTGCAGGGGCGGCGGGGGGCGCGGGGTGG
B9: 159 G4 (structured_DNA)
DNA: GGCGGGGGCGGGGGGACGGGGCGGGGGGGGCGG
B10: 142 G4 (structured_DNA)
DNA: GGGTCGCGGGGCCACGGGGGGCGGGGCGGGGGCCGCG
B11: HIF-1a G4 (structured_DNA)
DNA: GCGAGGGCGGGGGAGAGGGGAGGGGCGCG

These binders were tested against BmLARK ZnF (Bombyx mori, UniProt Q5I7M6 155-343) (assay: EMSA).

Row | Binder | binding result
1 | B1 | no binding

These binders were tested against T1, MmLARK (assay: EMSA).

Row | Binder | binding result
2 | B2 | binds
3 | B3 | binds
4 | B1 | binds

The binders below were run against T2, BmLARK (Bombyx mori (cDNA from Bm12 cells), UniProt Q5I7M6 1-343) (assay: EMSA).

Row | Binder | binding result
5 | B4 | no binding
6 | B5 | no binding
7 | B6 | no binding
8 | B7 | no binding

Each binder was assayed against DmLARK (Drosophila melanogaster, UniProt Q94901 1-352) (assay: EMSA).
Chain of DmLARK (Q94901 whole entry): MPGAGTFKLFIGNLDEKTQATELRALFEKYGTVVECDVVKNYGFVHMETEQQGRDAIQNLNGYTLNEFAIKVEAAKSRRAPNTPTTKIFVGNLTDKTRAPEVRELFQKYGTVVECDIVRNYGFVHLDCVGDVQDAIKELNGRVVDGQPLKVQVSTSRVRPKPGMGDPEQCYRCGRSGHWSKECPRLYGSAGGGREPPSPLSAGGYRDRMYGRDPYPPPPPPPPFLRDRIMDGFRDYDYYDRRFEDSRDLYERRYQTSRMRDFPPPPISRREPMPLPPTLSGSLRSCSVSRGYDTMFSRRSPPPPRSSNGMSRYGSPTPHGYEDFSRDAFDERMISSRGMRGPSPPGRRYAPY

Row | Binder | binding result
9 | B1 | binds

These binders were tested against HsLARK (Homo sapiens, UniProt Q9BWF3 1-364) (assay: EMSA).

Row | Binder | binding result
10 | B2 | binds
11 | B3 | binds
12 | B1 | binds

Each binder was assayed against T2, BmLARK (assay: MST).

Row | Binder | Kd
13 | B8 | 120 nM
14 | B2 | 269 nM
15 | B3 | 126 nM
16 | B1 | 111 nM
17 | B9 | 114 nM
18 | B10 | 107 nM
19 | B11 | 131 nM
